Experimental findings from article PMC9571070, “Three-Fluorophore FRET Enables the Analysis of Ternary Protein Association in Living Plant Cells” (Plants, 2022) are described below.

For the assay, the target named is T1, Receptor-Like Protein 44 fused to monomeric Turquoise 2 (RLP44-mTRQ2) (UniProt Q9M2Y3 25-274).
T1 construct: Receptor-Like Protein 44 (RLP44); Plasma membrane protein with its own signal peptide; also called RLP44-TRQ2; source: N. benthamiana epidermal leaf cells, transiently transformed, in living cells; not shown: mTRQ2, C-terminal, kept
T1 sequence (looked up): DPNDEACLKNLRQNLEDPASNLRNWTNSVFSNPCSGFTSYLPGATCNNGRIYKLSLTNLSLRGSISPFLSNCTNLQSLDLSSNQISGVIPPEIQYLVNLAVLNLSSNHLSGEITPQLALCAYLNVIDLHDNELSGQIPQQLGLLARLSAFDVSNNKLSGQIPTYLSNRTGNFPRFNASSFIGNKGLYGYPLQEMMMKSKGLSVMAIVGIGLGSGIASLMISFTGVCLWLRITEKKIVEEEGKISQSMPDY
Kind of assay: FRET or BRET; FRET-FLIM, fluorescence lifetime of the donor RLP44-mTRQ2 (440 nm pulsed laser, TCSPC), two fusion proteins co-expressed, plasma membrane of living N. benthamiana epidermal leaf cells. Conditions: partners not purified. For orientation: BRET reads energy transfer from a luciferase to a nearby fluorophore.

B1: BRI1 Associated Kinase 1 fused to monomeric red fluorescence protein 1 (BAK1-mRFP) (receptor, UniProt Q94F62 26-615, looked up)
chain: NAEGDALSALKNSLADPNKVLQSWDATLVTPCTWFHVTCNSDNSVTRVDLGNANLSGQLVMQLGQLPNLQYLELYSNNITGTIPEQLGNLTELVSLDLYLNNLSGPIPSTLGRLKKLRFLRLNNNSLSGEIPRSLTAVLTLQVLDLSNNPLTGDIPVNGSFSLFTPISFANTKLTPLPASPPPPISPTPPSPAGSNRITGAIAGGVAAGAALLFAVPAIALAWWRRKKPQDHFFDVPAEEDPEVHLGQLKRFSLRELQVASDNFSNKNILGRGGFGKVYKGRLADGTLVAVKRLKEERTQGGELQFQTEVEMISMAVHRNLLRLRGFCMTPTERLLVYPYMANGSVASCLRERPESQPPLDWPKRQRIALGSARGLAYLHDHCDPKIIHRDVKAANILLDEEFEAVVGDFGLAKLMDYKDTHVTTAVRGTIGHIAPEYLSTGKSSEKTDVFGYGVMLLELITGQRAFDLARLANDDDVMLLDWVKGLLKEKKLEALVDVDLQGNYKDEEVEQLIQVALLCTQSSPMERPKMSEVVRMLEGDGLAERWEEWQKEEMFRQDFNYPTHHPAVSGWIIGDSTSQIENEYPSGPR
notes: BRI1 Associated Kinase 1 (BAK1), co-receptor kinase; also called BAK1-RFP; source: N. benthamiana epidermal leaf cells, transiently transformed, in living cells; not shown: mRFP, C-terminal, kept
As for B1, the “fluorescence lifetime of the donor RLP44-mTRQ2 (donor alone about 3.99 ns)” value came out at 3.54 ns.
